Two molecules from article PMC2233703 can be followed below.

Assay [1] addresses sulfonylurea receptor SUR1 (UniProt Q09427).
The target is the same in assay [2]. The source holds these as a separate data set.
For assay [3] the target is unchanged. The source holds these as a separate data set.

UniProt Q09427, sequence (Q09427 whole entry): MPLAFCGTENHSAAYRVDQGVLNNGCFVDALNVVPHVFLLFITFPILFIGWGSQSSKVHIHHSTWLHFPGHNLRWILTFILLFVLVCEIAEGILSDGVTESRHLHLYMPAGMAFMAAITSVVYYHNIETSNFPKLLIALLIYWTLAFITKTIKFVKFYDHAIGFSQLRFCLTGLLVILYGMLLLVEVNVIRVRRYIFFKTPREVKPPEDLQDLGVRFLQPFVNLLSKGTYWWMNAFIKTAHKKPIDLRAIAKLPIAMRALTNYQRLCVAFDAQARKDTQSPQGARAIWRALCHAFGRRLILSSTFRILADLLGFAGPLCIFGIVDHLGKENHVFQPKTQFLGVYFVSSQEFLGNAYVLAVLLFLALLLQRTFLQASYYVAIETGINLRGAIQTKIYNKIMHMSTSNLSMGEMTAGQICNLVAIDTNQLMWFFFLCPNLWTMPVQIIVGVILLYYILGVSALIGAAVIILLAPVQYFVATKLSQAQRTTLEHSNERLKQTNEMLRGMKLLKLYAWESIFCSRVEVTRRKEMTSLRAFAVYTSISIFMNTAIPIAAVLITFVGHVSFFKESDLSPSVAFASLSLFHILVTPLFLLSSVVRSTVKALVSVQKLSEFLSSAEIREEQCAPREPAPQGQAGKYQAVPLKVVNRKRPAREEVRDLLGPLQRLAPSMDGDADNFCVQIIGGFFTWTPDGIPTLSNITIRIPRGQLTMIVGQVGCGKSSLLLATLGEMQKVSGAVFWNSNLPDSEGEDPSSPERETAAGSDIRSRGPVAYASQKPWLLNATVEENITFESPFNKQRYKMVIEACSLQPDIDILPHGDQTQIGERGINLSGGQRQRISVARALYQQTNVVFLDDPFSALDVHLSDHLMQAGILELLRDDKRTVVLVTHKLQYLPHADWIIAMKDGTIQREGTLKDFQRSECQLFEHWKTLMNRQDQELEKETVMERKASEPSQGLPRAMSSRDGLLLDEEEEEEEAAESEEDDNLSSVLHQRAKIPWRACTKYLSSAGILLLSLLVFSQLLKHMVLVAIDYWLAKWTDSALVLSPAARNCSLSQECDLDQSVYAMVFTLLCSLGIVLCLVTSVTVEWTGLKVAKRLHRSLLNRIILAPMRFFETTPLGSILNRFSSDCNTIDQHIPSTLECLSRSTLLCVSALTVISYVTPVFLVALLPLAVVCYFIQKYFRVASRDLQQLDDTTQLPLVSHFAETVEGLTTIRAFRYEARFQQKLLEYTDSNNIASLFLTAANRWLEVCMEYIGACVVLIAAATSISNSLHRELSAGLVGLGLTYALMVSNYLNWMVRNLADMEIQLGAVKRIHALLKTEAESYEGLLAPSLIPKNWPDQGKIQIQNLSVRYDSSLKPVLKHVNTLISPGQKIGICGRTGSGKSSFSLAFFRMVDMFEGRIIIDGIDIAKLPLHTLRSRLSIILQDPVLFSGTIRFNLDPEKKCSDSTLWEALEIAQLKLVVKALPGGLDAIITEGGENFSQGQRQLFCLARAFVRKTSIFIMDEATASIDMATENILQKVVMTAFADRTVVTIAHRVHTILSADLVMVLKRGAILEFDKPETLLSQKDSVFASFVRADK

B1: Kir6.2 wild-type linked to GFP at the COOH terminus (natural protein)
chain: MLSRKGIIPEEYVLTRLAEDPAEPRYRTRERRARFVSKKGNCNVAHKNIREQGRFLQDVFTTLVDLKWPHTLLIFTMSFLCSWLLFAMVWWLIAFAHGDLAPGEGTNVPCVTSIHSFSSAFLFSIEVQVTIGFGGRMVTEECPLAILILIVQNIVGLMINAIMLGCIFMKTAQAHRRAETLIFSKHAVITLRHGRLCFMLRVGDLRKSMIISATIHMQVVRKTTSPEGEVVPLHQVDIPMENGVGGNGIFLVAPLIIYHVIDSNSPLYDLAPSDLHHHQDLEIIVILEGVVETTGITTQARTSYLADEILWGQRFVPIVAEEDGRYSVDYSKFGNTIKVPTPLCTARQLDEDRSLLDALTLASSRGPLRKRSVAVAKAKPKFSISPDSLS
Turning to B1, the inhibition of channel activity by 200 nM glyburide, inside-out patch clamp in assay [1] turned out to be 45%. The molecule also registered a reactivation by MgADP of ATP-inhibited channels, inside-out patch clamp in assay [2] of 46%.

B2: Kir6.2 mutant R176C linked to GFP (natural protein)
chain: MLSRKGIIPEEYVLTRLAEDPAEPRYRTRERRARFVSKKGNCNVAHKNIREQGRFLQDVFTTLVDLKWPHTLLIFTMSFLCSWLLFAMVWWLIAFAHGDLAPGEGTNVPCVTSIHSFSSAFLFSIEVQVTIGFGGRMVTEECPLAILILIVQNIVGLMINAIMLGCIFMKTAQAHCRAETLIFSKHAVITLRHGRLCFMLRVGDLRKSMIISATIHMQVVRKTTSPEGEVVPLHQVDIPMENGVGGNGIFLVAPLIIYHVIDSNSPLYDLAPSDLHHHQDLEIIVILEGVVETTGITTQARTSYLADEILWGQRFVPIVAEEDGRYSVDYSKFGNTIKVPTPLCTARQLDEDRSLLDALTLASSRGPLRKRSVAVAKAKPKFSISPDSLS
As to B2, the inhibition of channel activity by 0.5 μM glyburide, inside-out patch clamp in assay [3] is 5.5%. The same molecule had a reactivation by MgADP of ATP-inhibited channels, inside-out patch clamp in assay [2] of 6%.
